Reference: US20200270352A1

Experiments:
[1] = molecular target: soluble recombinant human IGF-1R hetero-tetramer (2 α chains and the extracellular domains of 2 β chains) with C-terminal 10-His tag (R&D Systems 305-GR-50) (human) (UniProt P08069); experiment: SPR Biacore X100, His-captured h-IGF-1R (about 600 RU), mean of 4 experiments
[2] = molecular target: soluble recombinant human IGF-1R hetero-tetramer (2 α chains and the extracellular domains of 2 β chains) with C-terminal 10-His tag (R&D Systems 305-GR-50) (human) (UniProt P08069); experiment: SPR, Ln(2)/koff

Kd [1]: 0.06 nM | half-life of the complex [2]: 2 to 3 h
B1: humanized antibody hz208F2 VH3/VL3 (hz208F2 H026/L024) (antibody, human IgG1, kappa, V domains shown)
VH: QVQLVQSGAEVKKPGASVKMSCKASGYTFTSYYIYWVKQAPGQGLEWLGWIWPGDGSTKYNEKFQGRVTLTADKSSNTAYMFLSSLRSEDTAVYFCASPMITPNYAMDYWGQGTLVTVSS
VL: DIQMTQSPSSLSASVGDRVTISCRASQDISKYLNWYQQKPGKAPKLLIYYTSRLHSGVPSRFSGRGSGTDYSLTISNLQPEDFATYFCQQGSTLPYTFGGGTKVEIKR
